# In patent publication US12338268B2, “Compositions and methods for treating protein aggregation-associated diseases” (The Board of Trustees of the Leland Stanford Junior …, priority 2019, dated 2025):
# B1: NAC: nascent polypeptide-associated complex, heterodimer of αNAC and βNAC; species not given at the place (C. elegans icd-1/icd-2 when overexpressed in worms) (protein)
# chain 1: MTGSTETRQKEVKEPQVDVSDDSDNEAVEQELTEEQRRVAEAAGLGDHIDKQAKQSRSEKKARKLFSKLGLKQVTGVSRVCIRKSKNILFVINKPDVFKSPGSDTYIIFGEAKIEDLTQHAQMSAIENLKPTREAPQLKTVEEDENEDVEEDSTGIEEKDIELVISQANTTRNKAIRALKEADNDIVNAIMSLTM
# chain 2: MMDSKAIAERIKKLQAQQEHVRIGGKGTPRRKKKVIHKTAAADDKKLQSNLKKLSVTNIPGIEEVNMIKDDGTVIHFNNPKVQTSVPANTFSVTGSADNKQITEMLPGILNQLGPESLTHLKKLANNVTKLGPDGKGEDEDVPELVGDFDAASKNETKADEQ
# Legend:
# [1] = target: GdmCl-denatured firefly luciferase (Photinus pyralis, UniProt P08659); assay: Luciferase refolding assay; assay type: biochemical; details: denatured luciferase preincubated 1:1 for 15 min at room temperature before adding Hsp70/Hsp40
# [2] = target: T1, FlucDM-EGFP (Photinus pyralis, UniProt P08659, R188Q/R261Q); assay: FlucDM-EGFP aggregation after heat-shock in C. elegans; assay type: in vivo; details: overexpressed in muscle cells; heat-shock 1 h, 33° C.; 24 h recovery at 20° C.
# T1 construct: expressed in transfected cells; host or cells: C. elegans muscle cells (transgenic strain, unc-54 promoter)
# Protocol: We further investigated NAC activity on luciferase refolding in vivo using a C. elegans strain expressing a structurally destabilized version of luciferase fused to EGFP (FlucDM-EGFP) in muscle cells (Gupta et al., 2011). This protein is soluble at moderate temperature but aggregates upon heat stress. After heat-shock (1 h, 33° C.) of worms, FlucDM-EGFP formed large punctate aggregates which were still evident in control animals after 24 h recovery at 20° C. (FIG. 4B, “ev”). […] Thus, efficient luciferase refolding by NAC depends on N-βNAC, in vitro and in vivo.
# Worms were cultured according to standard techniques with E. coli OP50 as food source (Brenner, 1974). Transgenic strains were generated using standard microinjection protocols (Mello and Fire, 1995). Constructs for overexpression of NAC in body wall muscles were generated by cloning the coding sequences of icd-1 (βNAC) and icd-2 (αNAC) into a vector containing the myo-3 promoter and the unc-54 3′-untranslated region (UTR). The NAC genes were N-terminally tagged with 3×FLAG. Mutant NAC constructs were generated by standard mutagenesis protocols. AM140 (unc-54p::Q35::YFP) and FlucDM-EGFP (unc-54p::luciferase::GFP) worms were injected with 25 ng/μl of each NAC plasmid together with myo-2p::mCherry (2.5 ng/μl) and DNA ladder (100 ng/μl, GeneRuler 1 kb, Thermo Scientific). […]
# [3] = target: T2, Aβ40 (Homo sapiens, UniProt P05067); assay: Chemical crosslinking (BS3) and mass spectrometry of NAC-Aβ40 complexes; assay type: binding; details: NAC and Aβ40 both 18 μM, 37° C. 2 h
# T2 construct: Aβ40 peptide was expressed and purified as described previously; made in house; host or cells: E. coli BL21 (DE3)
# Protocol: Aβ40 (18 μM) was incubated with purified NAC in a 1:1 molar ratio in Aβ aggregation buffer (20 mM sodium phosphate pH 7.5, 0.2 mM EDTA, 0.01% (w/v) NaN3) at 37° C. for 2 h. BS^3-h^12d^12 was added to the proteins at 20× molar excess and incubated for 30 min at 37° C. before quenching with 50 mM NH4HCO3. Crosslinked samples were gel-filtrated using a Superdex 75 column (GE Healthcare) and fractions containing crosslinked Aβ40-NAC complexes subjected to co-immunoprecipitation using Aβ antibody 6E10 (Biozol). Captured proteins were denatured with 1×SDS sample buffer under non-reducing conditions to avoid splitting of the antibody in heavy and light chains.
# Gel pieces containing the crosslinked complexes were washed with 25 mM ammonium bicarbonate (pH 7.8) for 1 h with shaking. The solution was removed and the pieces destained three times with 25 mM ammonium bicarbonate in 60% acetonitrile. Gel pieces were dehydrated with 100% acetonitrile for 10 min and left to air-dry in a laminar flowhood for 1 h. Rehydration of the gel pieces was achieved by adding 0.1 mg/ml trypsin solution and incubating the samples on ice for 30 min. Excess trypsin was removed and the samples were incubated at 37° C. and 1000 rpm overnight. […] The extracts were pooled and concentrated using a SpeedVac before being analyzed using a nanoACQUITY LC-system coupled to a Synapt HDMS G2Si mass spectrometer. […]
# [4] = target: α-synuclein (Homo sapiens, UniProt P37840); details: Martin et al., 2018; cited from earlier work
# Chain of GdmCl-denatured firefly luciferase (P08659 whole entry): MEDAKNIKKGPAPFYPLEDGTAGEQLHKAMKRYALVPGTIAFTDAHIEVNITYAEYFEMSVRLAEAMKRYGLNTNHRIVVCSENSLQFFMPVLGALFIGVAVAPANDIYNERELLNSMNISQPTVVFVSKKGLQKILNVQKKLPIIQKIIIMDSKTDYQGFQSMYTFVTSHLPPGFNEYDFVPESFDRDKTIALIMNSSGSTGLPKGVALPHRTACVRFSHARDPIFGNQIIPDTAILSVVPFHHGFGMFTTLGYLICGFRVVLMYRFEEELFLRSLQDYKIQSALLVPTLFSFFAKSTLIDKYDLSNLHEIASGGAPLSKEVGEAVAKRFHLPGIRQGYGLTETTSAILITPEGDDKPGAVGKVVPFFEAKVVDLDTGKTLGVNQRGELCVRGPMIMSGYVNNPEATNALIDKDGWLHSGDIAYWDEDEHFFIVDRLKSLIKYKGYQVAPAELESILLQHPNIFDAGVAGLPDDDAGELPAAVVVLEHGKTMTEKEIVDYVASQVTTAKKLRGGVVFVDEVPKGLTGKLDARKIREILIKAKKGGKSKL
# T1 sequence (P08659 whole entry R188Q/R261Q): as the sequence (P08659 whole entry) above, with R188Q, R261Q counted along it
molecule,measurement,setting,value
B1,luciferase refolding by the Hsp70/Hsp40 system,[1],strongly enhanced over levels of just Hsp70/Hsp40 refolding
same,FlucDM-EGFP aggregates after heat-shock and recovery,[2],fully revert back to diffuse GFP signal
same,interaction with Aβ40 (crosslinking-MS),[3],interaction of Aβ40 with the N-terminal domains of NAC
same,aggregation of α-synuclein,[4],suppresses aggregation
